What was measured:
Assay in all cases: ELISA, albumin preparation immobilized on 96-well microplate
[1] = biological target: human serum albumin protein adduct with 4-HNE (human) (UniProt P02768)
[2] = biological target: bovine serum albumin protein adduct with 4-HNE (bovine) (UniProt P02769)
[3] = biological target: rat serum albumin protein adduct with 4-HNE (rat) (UniProt P02770)
[4] = biological target: rabbit serum albumin protein adduct with 4-HNE (rabbit) (UniProt P49065)
[5] = biological target: T1, rabbit serum albumin modified with crotonaldehyde (rabbit, UniProt P49065 25-608, non-enzymatically modified by incubation with crotonaldehyde (CRA, 50 mM, 7 days); sites not stated)
T1 construct: also called CRA Rabbit-SA
T1 sequence (P49065 25-608 limits assumed): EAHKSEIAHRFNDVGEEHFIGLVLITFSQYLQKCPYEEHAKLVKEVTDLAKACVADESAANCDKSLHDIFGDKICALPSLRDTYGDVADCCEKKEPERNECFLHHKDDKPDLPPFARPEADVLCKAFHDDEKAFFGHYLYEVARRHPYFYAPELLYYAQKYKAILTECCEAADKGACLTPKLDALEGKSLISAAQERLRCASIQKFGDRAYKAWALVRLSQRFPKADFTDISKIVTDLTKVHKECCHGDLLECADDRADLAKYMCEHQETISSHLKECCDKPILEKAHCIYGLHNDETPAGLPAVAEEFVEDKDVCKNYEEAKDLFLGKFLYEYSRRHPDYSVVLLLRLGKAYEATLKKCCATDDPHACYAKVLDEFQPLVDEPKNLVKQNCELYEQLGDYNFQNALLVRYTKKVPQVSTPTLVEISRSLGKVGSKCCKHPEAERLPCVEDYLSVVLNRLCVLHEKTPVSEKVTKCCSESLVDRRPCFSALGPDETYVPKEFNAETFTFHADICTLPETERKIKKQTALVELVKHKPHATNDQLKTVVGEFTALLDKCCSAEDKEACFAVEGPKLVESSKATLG
Text: (§1) Each mixed solution of substrate albumin and a protein-modifying substance was immobilized on a 96-well microplate, and was investigated for specificity to the anti-4-HNE antibody (#13-1-1) of the present invention by an ELISA method.

[6] = biological target: T2, bovine serum albumin modified with D-glucose (bovine, UniProt P02769 25-607, non-enzymatically modified by incubation with D-glucose (250 mM, 3 weeks); sites not stated)
T2 construct: also called D-glucose BSA
T2 sequence (P02769 25-607 limits assumed): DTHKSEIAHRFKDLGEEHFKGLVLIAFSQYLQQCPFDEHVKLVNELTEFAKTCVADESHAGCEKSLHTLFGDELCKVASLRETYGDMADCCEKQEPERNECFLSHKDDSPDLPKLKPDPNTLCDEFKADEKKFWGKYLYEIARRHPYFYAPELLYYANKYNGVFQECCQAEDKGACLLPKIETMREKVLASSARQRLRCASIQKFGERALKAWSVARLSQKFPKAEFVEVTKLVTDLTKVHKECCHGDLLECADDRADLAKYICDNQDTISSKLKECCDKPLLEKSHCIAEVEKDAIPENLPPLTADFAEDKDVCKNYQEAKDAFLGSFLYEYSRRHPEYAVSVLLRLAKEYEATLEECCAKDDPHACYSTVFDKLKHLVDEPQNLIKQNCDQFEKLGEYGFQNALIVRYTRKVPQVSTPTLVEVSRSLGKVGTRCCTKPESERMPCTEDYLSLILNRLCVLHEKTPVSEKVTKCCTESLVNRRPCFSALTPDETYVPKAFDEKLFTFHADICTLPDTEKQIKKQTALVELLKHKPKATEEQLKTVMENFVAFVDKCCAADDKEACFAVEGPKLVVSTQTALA
Text: as §1

[7] = biological target: T3, rabbit serum albumin modified with glyceraldehyde (rabbit, UniProt P49065 25-608, non-enzymatically modified by incubation with glyceraldehyde (50 mM, 7 days); sites not stated)
T3 construct: also called Glyceraldehyde Rabbit-SA
T3 sequence (P49065 25-608 limits assumed): as the sequence (P49065 25-608 limits assumed) above
Text: as §1

[8] = biological target: T4, human serum albumin modified with glyoxal (human, UniProt P02768 25-609, non-enzymatically modified by incubation with glyoxal (50 mM, 7 days); sites not stated)
T4 construct: also called Glyoxal HSA
T4 sequence (P02768 25-609 limits assumed): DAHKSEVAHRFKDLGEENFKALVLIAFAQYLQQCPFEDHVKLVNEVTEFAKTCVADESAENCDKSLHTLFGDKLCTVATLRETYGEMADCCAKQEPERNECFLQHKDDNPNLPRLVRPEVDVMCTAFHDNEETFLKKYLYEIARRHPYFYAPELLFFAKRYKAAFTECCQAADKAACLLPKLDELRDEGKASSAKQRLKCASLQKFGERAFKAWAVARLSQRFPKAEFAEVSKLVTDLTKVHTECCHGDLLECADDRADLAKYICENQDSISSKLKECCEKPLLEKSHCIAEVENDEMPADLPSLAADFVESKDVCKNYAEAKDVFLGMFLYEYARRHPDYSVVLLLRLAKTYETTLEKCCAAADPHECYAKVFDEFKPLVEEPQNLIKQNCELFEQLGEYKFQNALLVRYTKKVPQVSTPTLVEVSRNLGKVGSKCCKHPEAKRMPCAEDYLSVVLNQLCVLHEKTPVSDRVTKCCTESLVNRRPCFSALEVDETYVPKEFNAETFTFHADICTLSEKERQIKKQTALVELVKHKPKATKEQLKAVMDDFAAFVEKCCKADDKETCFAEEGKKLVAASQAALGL
Text: as §1

[9] = biological target: T5, rat serum albumin modified with D-glucose (rat, UniProt P02770 25-608, non-enzymatically modified by incubation with D-glucose (250 mM, 3 weeks); sites not stated)
T5 construct: also called D-glucose Rat-SA
T5 sequence (P02770 25-608 limits assumed): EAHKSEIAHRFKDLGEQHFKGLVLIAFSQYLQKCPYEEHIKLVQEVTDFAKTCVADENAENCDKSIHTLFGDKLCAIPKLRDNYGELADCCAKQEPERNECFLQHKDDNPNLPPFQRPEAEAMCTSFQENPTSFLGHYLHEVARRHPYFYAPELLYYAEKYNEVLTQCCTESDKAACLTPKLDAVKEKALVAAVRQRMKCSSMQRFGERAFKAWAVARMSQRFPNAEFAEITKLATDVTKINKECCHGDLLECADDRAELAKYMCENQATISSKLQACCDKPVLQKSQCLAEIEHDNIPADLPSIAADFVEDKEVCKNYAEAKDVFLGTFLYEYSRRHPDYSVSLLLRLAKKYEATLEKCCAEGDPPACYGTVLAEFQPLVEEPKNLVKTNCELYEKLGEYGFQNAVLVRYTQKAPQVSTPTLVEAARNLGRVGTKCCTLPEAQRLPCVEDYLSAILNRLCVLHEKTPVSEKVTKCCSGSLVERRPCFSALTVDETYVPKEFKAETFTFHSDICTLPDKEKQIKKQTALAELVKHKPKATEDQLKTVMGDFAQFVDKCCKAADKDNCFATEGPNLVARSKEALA
Text: as §1

[10] = biological target: T6, rat serum albumin modified with malondialdehyde (rat, UniProt P02770 25-608, non-enzymatically modified by incubation with malondialdehyde (MDA, 50 mM, 7 days); sites not stated)
T6 construct: also called MDA Rat-SA
T6 sequence (P02770 25-608 limits assumed): as above
Text: as §1

[11] = biological target: T7, rabbit serum albumin modified with glycolaldehyde (rabbit, UniProt P49065 25-608, non-enzymatically modified by incubation with glycolaldehyde (50 mM, 7 days); sites not stated)
T7 construct: also called Glycolaldehyde Rabbit-SA
T7 sequence (P49065 25-608 limits assumed): as the sequence (P49065 25-608 limits assumed) above
Text: as §1

[12] = biological target: T8, bovine serum albumin modified with glyoxal (bovine, UniProt P02769 25-607, non-enzymatically modified by incubation with glyoxal (50 mM, 7 days); sites not stated)
T8 construct: also called Glyoxal BSA
T8 sequence (P02769 25-607 limits assumed): as the sequence (P02769 25-607 limits assumed) above
Text: as §1

[13] = biological target: T9, rabbit serum albumin modified with glyoxal (rabbit, UniProt P49065 25-608, non-enzymatically modified by incubation with glyoxal (50 mM, 7 days); sites not stated)
T9 construct: also called Glyoxal Rabbit-SA
T9 sequence (P49065 25-608 limits assumed): as the sequence (P49065 25-608 limits assumed) above
Text: as §1

[14] = biological target: T10, rat serum albumin, unmodified (rat, UniProt P02770 25-608)
T10 construct: also called Rat-SA
T10 sequence (P02770 25-608 limits assumed): as the sequence (P02770 25-608 limits assumed) above
Text: as §1

[15] = biological target: T11, human serum albumin modified with methylglyoxal (human, UniProt P02768 25-609, non-enzymatically modified by incubation with methylglyoxal (50 mM, 7 days); sites not stated)
T11 construct: also called Methylglyoxal HSA
T11 sequence (P02768 25-609 limits assumed): as the sequence (P02768 25-609 limits assumed) above
Text: as §1

[16] = biological target: T12, bovine serum albumin modified with glycolaldehyde (bovine, UniProt P02769 25-607, non-enzymatically modified by incubation with glycolaldehyde (50 mM, 7 days); sites not stated)
T12 construct: also called Glycolaldehyde BSA
T12 sequence (P02769 25-607 limits assumed): as the sequence (P02769 25-607 limits assumed) above
Text: as §1

[17] = biological target: T13, bovine serum albumin modified with glyceraldehyde (bovine, UniProt P02769 25-607, non-enzymatically modified by incubation with glyceraldehyde (50 mM, 7 days); sites not stated)
T13 construct: also called Glyceraldehyde BSA
T13 sequence (P02769 25-607 limits assumed): as above
Text: as §1

[18] = biological target: T14, rat serum albumin modified with crotonaldehyde (rat, UniProt P02770 25-608, non-enzymatically modified by incubation with crotonaldehyde (CRA, 50 mM, 7 days); sites not stated)
T14 construct: also called CRA Rat-SA
T14 sequence (P02770 25-608 limits assumed): as the sequence (P02770 25-608 limits assumed) above
Text: as §1

[19] = biological target: T15, rabbit serum albumin modified with D-glucose (rabbit, UniProt P49065 25-608, non-enzymatically modified by incubation with D-glucose (250 mM, 3 weeks); sites not stated)
T15 construct: also called D-glucose Rabbit-SA
T15 sequence (P49065 25-608 limits assumed): as the sequence (P49065 25-608 limits assumed) above
Text: as §1

[20] = biological target: T16, human serum albumin modified with malondialdehyde (human, UniProt P02768 25-609, non-enzymatically modified by incubation with malondialdehyde (MDA, 50 mM, 7 days); sites not stated)
T16 construct: also called MDA HSA
T16 sequence (P02768 25-609 limits assumed): as the sequence (P02768 25-609 limits assumed) above
Text: as §1

[21] = biological target: T17, human serum albumin modified with crotonaldehyde (human, UniProt P02768 25-609, non-enzymatically modified by incubation with crotonaldehyde (CRA, 50 mM, 7 days); sites not stated)
T17 construct: also called CRA HSA
T17 sequence (P02768 25-609 limits assumed): as above
Text: as §1

[22] = biological target: T18, rat serum albumin modified with glycolaldehyde (rat, UniProt P02770 25-608, non-enzymatically modified by incubation with glycolaldehyde (50 mM, 7 days); sites not stated)
T18 construct: also called Glycolaldehyde Rat-SA
T18 sequence (P02770 25-608 limits assumed): as the sequence (P02770 25-608 limits assumed) above
Text: as §1

[23] = biological target: T19, bovine serum albumin, unmodified (bovine, UniProt P02769 25-607)
T19 construct: also called BSA
T19 sequence (P02769 25-607 limits assumed): as the sequence (P02769 25-607 limits assumed) above
Text: as §1

[24] = biological target: T20, rabbit serum albumin modified with malondialdehyde (rabbit, UniProt P49065 25-608, non-enzymatically modified by incubation with malondialdehyde (MDA, 50 mM, 7 days); sites not stated)
T20 construct: also called MDA Rabbit-SA
T20 sequence (P49065 25-608 limits assumed): as the sequence (P49065 25-608 limits assumed) above
Text: as §1

[25] = biological target: T21, rat serum albumin modified with methylglyoxal (rat, UniProt P02770 25-608, non-enzymatically modified by incubation with methylglyoxal (50 mM, 7 days); sites not stated)
T21 construct: also called Methylglyoxal Rat-SA
T21 sequence (P02770 25-608 limits assumed): as the sequence (P02770 25-608 limits assumed) above
Text: as §1

[26] = biological target: T22, bovine serum albumin modified with methylglyoxal (bovine, UniProt P02769 25-607, non-enzymatically modified by incubation with methylglyoxal (50 mM, 7 days); sites not stated)
T22 construct: also called Methylglyoxal BSA
T22 sequence (P02769 25-607 limits assumed): as the sequence (P02769 25-607 limits assumed) above
Text: as §1

[27] = biological target: T23, human serum albumin modified with glycolaldehyde (human, UniProt P02768 25-609, non-enzymatically modified by incubation with glycolaldehyde (50 mM, 7 days); sites not stated)
T23 construct: also called Glycolaldehyde HSA
T23 sequence (P02768 25-609 limits assumed): as the sequence (P02768 25-609 limits assumed) above
Text: as §1

[28] = biological target: T24, bovine serum albumin modified with crotonaldehyde (bovine, UniProt P02769 25-607, non-enzymatically modified by incubation with crotonaldehyde (CRA, 50 mM, 7 days); sites not stated)
T24 construct: also called CRA BSA
T24 sequence (P02769 25-607 limits assumed): as the sequence (P02769 25-607 limits assumed) above
Text: as §1

[29] = biological target: T25, rat serum albumin modified with glyoxal (rat, UniProt P02770 25-608, non-enzymatically modified by incubation with glyoxal (50 mM, 7 days); sites not stated)
T25 construct: also called Glyoxal Rat-SA
T25 sequence (P02770 25-608 limits assumed): as the sequence (P02770 25-608 limits assumed) above
Text: as §1

[30] = biological target: T26, human serum albumin modified with glyceraldehyde (human, UniProt P02768 25-609, non-enzymatically modified by incubation with glyceraldehyde (50 mM, 7 days); sites not stated)
T26 construct: also called Glyceraldehyde HSA
T26 sequence (P02768 25-609 limits assumed): as the sequence (P02768 25-609 limits assumed) above
Text: as §1

[31] = biological target: T27, rabbit serum albumin modified with methylglyoxal (rabbit, UniProt P49065 25-608, non-enzymatically modified by incubation with methylglyoxal (50 mM, 7 days); sites not stated)
T27 construct: also called Methylglyoxal Rabbit-SA
T27 sequence (P49065 25-608 limits assumed): as the sequence (P49065 25-608 limits assumed) above
Text: as §1

[32] = biological target: T28, human serum albumin, unmodified (human, UniProt P02768 25-609)
T28 construct: also called HSA
T28 sequence (P02768 25-609 limits assumed): as the sequence (P02768 25-609 limits assumed) above
Text: as §1

[33] = biological target: T29, human serum albumin modified with D-glucose (human, UniProt P02768 25-609, non-enzymatically modified by incubation with D-glucose (250 mM, 3 weeks); sites not stated)
T29 construct: also called D-glucose HSA
T29 sequence (P02768 25-609 limits assumed): as above
Text: as §1

[34] = biological target: T30, bovine serum albumin modified with malondialdehyde (bovine, UniProt P02769 25-607, non-enzymatically modified by incubation with malondialdehyde (MDA, 50 mM, 7 days); sites not stated)
T30 construct: also called MDA BSA
T30 sequence (P02769 25-607 limits assumed): as the sequence (P02769 25-607 limits assumed) above
Text: as §1

[35] = biological target: T31, rabbit serum albumin, unmodified (rabbit, UniProt P49065 25-608)
T31 construct: also called Rabbit-SA
T31 sequence (P49065 25-608 limits assumed): as the sequence (P49065 25-608 limits assumed) above
Text: as §1

[36] = biological target: T32, rat serum albumin modified with glyceraldehyde (rat, UniProt P02770 25-608, non-enzymatically modified by incubation with glyceraldehyde (50 mM, 7 days); sites not stated)
T32 construct: also called Glyceraldehyde Rat-SA
T32 sequence (P02770 25-608 limits assumed): as the sequence (P02770 25-608 limits assumed) above
Text: as §1

rabbit serum albumin protein adduct with 4-HNE (rabbit), sequence (P49065 25-608 limits assumed, form in doubt): as the sequence (P49065 25-608 limits assumed) above
human serum albumin protein adduct with 4-HNE (human), sequence (P02768 25-609 limits assumed, form in doubt): as the sequence (P02768 25-609 limits assumed) above
rat serum albumin protein adduct with 4-HNE (rat), sequence (P02770 25-608 limits assumed, form in doubt): as the sequence (P02770 25-608 limits assumed) above
bovine serum albumin protein adduct with 4-HNE (bovine), sequence (P02769 25-607 limits assumed, form in doubt): as the sequence (P02769 25-607 limits assumed) above

B1: anti-4-HNE monoclonal antibody (#13-1-1) (antibody, V domains shown)
VH: EVKLLASGGGLVQPGGSMRLSCAASGFTFTDFYMYWIRQPAGKAPEWLGFIRNKANGYTTEYNPSVKGRFTISRDNTQNMLYLQMNTLRAEDTATYYCALGYYGYNYNWFAYWGQGTLVTVSS
VL: ETVMTQSPTSMSTSIGERVTLNCRASQSVGINVDWYQQTPGQSPKMLIYGASNRHTGVPDRFTGSGFGRDFTLTISNMEAEDLGVYYCLQYASIPYTFGAGTKLELKR
notes: Rat hybridoma monoclonal antibody; also called anti-4-HNE antibody (#13-1-1); monoclonal antibody produced from Rat hybridoma #13-1-1
- ELISA reading (name and unit not given) [1]: 0.956
- ELISA reading (name and unit not given) [2]: 1.11
- ELISA reading (name and unit not given) [3]: 1.37
- ELISA reading (name and unit not given) [4]: 0.663
- ELISA reading (name and unit not given) [5]: 0.074
- ELISA reading (name and unit not given) [6]: 0.081
- ELISA reading (name and unit not given) [7]: 0.069
- ELISA reading (name and unit not given) [8]: 0.065
- ELISA reading (name and unit not given) [9]: 0.076
- ELISA reading (name and unit not given) [10]: 0.08
- ELISA reading (name and unit not given) [11]: 0.067
- ELISA reading (name and unit not given) [12]: 0.066
- ELISA reading (name and unit not given) [13]: 0.073
- ELISA reading (name and unit not given) [14]: 0.088
- ELISA reading (name and unit not given) [15]: 0.069
- ELISA reading (name and unit not given) [16]: 0.071
- ELISA reading (name and unit not given) [17]: 0.07
- ELISA reading (name and unit not given) [18]: 0.141
- ELISA reading (name and unit not given) [19]: 0.069
- ELISA reading (name and unit not given) [20]: 0.065
- ELISA reading (name and unit not given) [21]: 0.077
- ELISA reading (name and unit not given) [22]: 0.07
- ELISA reading (name and unit not given) [23]: 0.15
- ELISA reading (name and unit not given) [24]: 0.07
- ELISA reading (name and unit not given) [25]: 0.074
- ELISA reading (name and unit not given) [26]: 0.073
- ELISA reading (name and unit not given) [27]: 0.071
- ELISA reading (name and unit not given) [28]: 0.156
- ELISA reading (name and unit not given) [29]: 0.073
- ELISA reading (name and unit not given) [30]: 0.068
- ELISA reading (name and unit not given) [31]: 0.072
- ELISA reading (name and unit not given) [32]: 0.118
- ELISA reading (name and unit not given) [33]: 0.068
- ELISA reading (name and unit not given) [34]: 0.074
- ELISA reading (name and unit not given) [35]: 0.114
- ELISA reading (name and unit not given) [36]: 0.069

— patent publication US20250026860A1 (NATIONAL UNIVERSITY CORPORATION OKAYAMA UNIVERSITY, published 2025)
